B1: RNA polymerase I-specific transcription initiation factor RRN6 (Saccharomyces cerevisiae), P32786 (parent)
chain: MSEGQIPSSDVLGSQLGVGVQGASLYCPQENYTTKKQEKPQWLRPVDDTLAEDALDLHIVVKSLLCDTAIRYISDDKVLQESDADDDLITSDIDEDTDNQGDTSIVVNPVIPVVPKDVHFFKKVDVGNDSMFGVNCDTPVSFQDYIPSDLLRNLDDTLQESTNSSRPMQDAFFWDPTVANRLDSQYIQTASDLRNYRDGTEIIAYASGKTGSVLNIAVLTRQNTLHLNRHNNVTSIELHSPIKSIKIPGASESIGRRSNLVGIITENSFQIFRIESVHSRSCDVMVSSSEPLYFVEIDDLQVVDFAFNPWDLQQFAIIDIKGNWSIGRIPKNFNNNNKRKLQLIDNLHGTIFDPEELSSWKRIEWFSHFQKILVFDRSKMIEIDFMNNWQTEVVQAKAWSNIRDYKRIDDKNGILLTSREIIIVGASESNDPVRRISWKHDLDPDDTTLRITVQKVKKPDHILLVAFVYSMRHKRIYMHVFSHRKANLFQSLGCSTVLEIPGGTPTGIETILTLDHIDDESRREEDADENFELVVDFLVKLRNSSEVYYYALSNTQNSEPNKQETPIIVDHPEWASLFNNADEREKESIGALVSQIKLKERERISRVQNLIEHENSHDEDKYLQDLGYRLSIATNELLESWQKTKDESILSGSLSHSKLKNLLENSDSFASIPEFSSLLDQFFQYYQDQDVTFIGFEKLLHLFLHEDVPGLDIFYNKLLQCWVLVSPQAELLTKEIVKDIIWSLARLEKPSLFEPIQNEISRSLSGPYQDIISSWDMDDINEEDESNEFNFDSQFSAPFNGRPPFNLNSQSQIPTIKSSQSSGLARRKRILKTQSQKATPLSQSTQNLSVLPDSMTPAFTLMQPPSSQISFVNDSQPRNSQKAKKKKKRIRGFG
partner: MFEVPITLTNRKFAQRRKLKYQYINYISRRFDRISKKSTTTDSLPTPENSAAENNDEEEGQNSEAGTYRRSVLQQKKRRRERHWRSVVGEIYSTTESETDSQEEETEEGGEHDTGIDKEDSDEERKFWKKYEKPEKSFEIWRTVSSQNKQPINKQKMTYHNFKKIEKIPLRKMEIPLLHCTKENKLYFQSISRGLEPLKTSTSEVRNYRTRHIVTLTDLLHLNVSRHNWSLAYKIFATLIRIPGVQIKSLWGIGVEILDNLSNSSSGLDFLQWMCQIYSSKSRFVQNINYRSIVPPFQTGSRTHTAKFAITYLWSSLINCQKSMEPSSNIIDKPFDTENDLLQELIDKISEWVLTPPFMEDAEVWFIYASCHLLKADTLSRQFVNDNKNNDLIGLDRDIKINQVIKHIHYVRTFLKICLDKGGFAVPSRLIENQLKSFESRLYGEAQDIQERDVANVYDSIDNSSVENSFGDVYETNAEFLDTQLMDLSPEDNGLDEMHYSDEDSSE
B2: RNA polymerase I-specific transcription initiation factor RRN11 (Saccharomyces cerevisiae), Q04712 (parent)
chain: B1 partner
partner: B1 chain

Variants of: B1
Conditions: with rrn11_yeast RRN11, Q04712

effect of a mutation on the interaction | Variant
decreasing interaction | L50A;L57A;L64A

Variants of: B2
Conditions: with rrn6_yeast RRN6, P32786

effect of a mutation on the interaction | Variant
decreasing interaction | MFEVPITLTNRKFAQRRKLKYQYINYISRRFDRISKKSTTTDSLPTPENSAAENNDEEEGQNSEAGTYRRSVLQQKKRRRERHWRSVVGEIYSTTESETDSQEEETEEGGEHDTGIDKEDSDEERKFWKKYEKPEKSFEIWRTVSSQNKQPINKQKMTYHNFKKIEKIPLRKMEIPLLHCTKENKLYFQSISRGLEPLKTSTSEVRNYRTRHIVTLTDLLHLNVSRHNWSLAYKIFATLIRIPGVQIKSLWGIGVEILDNLSNSSSGLDFLQWMCQIYSSKSRFVQNINYRSIVPPFQTGSRTHTAKFAITYLWSSLINCQKSMEPSSNIIDKPFDTENDLLQELIDKISEWVLTPPFMEDAEVWFIYASCHLLKADTLSRQFVNDNKNNDLIGLDRDIKINQVIKHIHYVRTFLKICLDKGGFAVPSRLIENQLKSFESRLYGEAQDIQERDVANVYDSIDNSSVENSFGDVYETNAEFADTQLMDASPEDNGADEMHYSDEDSSE [L481A;L488A;L495A]
